Results from the nanobody polyreactivity screen of Harvey et al. (2022).

assay: yeast display, Sf9 membrane polyspecificity reagent, FACS + sequencing; frameworks hold sequencing errors
How it was run: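 Nanobodies came from a synthetic yeast display library in Saccharomyces cerevisiae BJ5465, induced with galactose for 36–48 hours and stained for 1 hour at 4 °C with 10% biotinylated, detergent-solubilized Sf9 membrane reagent. Cells were enriched on streptavidin microbeads and then FACS-sorted, with low and high (top ~1%) gates set on anti-HA fluorescence for expression and streptavidin fluorescence for reagent binding. Each polyreactivity label reflects the gate a clone came from. Genes were amplified by colony PCR, sequenced by MiSeq 2 × 250 and filtered by CDR length.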

Sequence | polyreactivity (PSR sort gate)
QVQLVESGGGLVQAGGSLRLSCAASGSTFGRNAMGWYRQAPGKERELVATINWNGGRTYYADSVKGRFTISRDNAKNSVYLQMNSLKPEDTAVYYCNATKTGPATVRYYYWGQGTQVTVSS | high polyreactivity
QVQLVESGGGLVQAGGSLRLSCAASGSTFGRNTMGWYRPAPGKERELVASITRSSTSTYYADSVKGRFTISRDNAKNTVYLQMNSLKPEDTAVYYCAARALRTDRSPVGRHEYWGQGTQVTVSS | low polyreactivity
QVQLVESGGGLVQAGGSLRLSCAASGSTFGRYALGWYRQAPGKEREFVAAISWSGGSTYYADSVKGRFTISRDNAKNTVYLQMNSLKPEDSAVYYCAASYIYQSSWYHRMYYWGQGTQVTVSS | high polyreactivity
QVQLVESGGGLVQAGGSLRLSCAASGSTFGRYAMGWYREAPGKERELVAGITYGSTYYADSVKGRVTISRDNAKNTVYLPMNSLKPEDTAVYACAADLSYTSVHGYRSETLMDYWGQGTQVTVSS | low polyreactivity
QVQLVESGGGLVQAGGSLRLSCAASGSTFGRYAMGWYRQAPGKERELVAAISRRGGSTYYADSVKGRFTISRDNAKNTVYLQMNSLKPEDTAVYYCATGYPIDLGREFDYWGQGIQVTVSS | high polyreactivity
QVQLVESGGGLVQAGGSLRLSCAASGSTFGRYAMGWYRQAPGKERELVAAITSDTGHTNYADSVKGRFTISRDNAKNTVYLQMNSLKPEDTAVYYCAAANFWVLWGHVIGNYDSWGQGTQVTVSS | low polyreactivity
QVQLVESGGGLVQAGGSLRLSCAASGSTFGRYGMGWYSQAPGKERELVAAISKNAGSTYYADSVKGRCTISRDNAKNTVYLQMNSLKPEDTAVYYCAADWRTKGYDSLGQGTQVTVSS | high polyreactivity
QVQLVESGGGLVQAGGSLRLSCAASGSTFGRYVMGWYRQAPGKERELVAAISYSGGRTYYADSVKGRFTISRDNAKNTVYLQMNSLKPEDTAVYYCNKGGIREYDYWGQGTQVTVSS | high polyreactivity
QVQLVESGGGLVQAGGSLRLSCAASGSTFGSNAIGWYRQAPGKERELVAAISKRGGSTYYADSVKGRFTISRDNAKNTVYLQMNSLKPEDTAVYYCAVAYTPSRRYSAYSADRMDYWGQGTQVTVSS | high polyreactivity
QVQLVESGGGLVQAGGSLRLSCAASGSTFGSYAMGWYRQAPGKERELVAAITGSGGRTYYADSVKGRFTISRDNAKNRVYLQLNSLKPEDTAVYYCAKVPDYRFEYWGQGTQVTVSS | high polyreactivity
QVQLVESGGGLVQAGGSLRLSCAASGSTFGSYAMGWYRQAPGKERELVASISSRGGSTYYADSVKGRFTISRDNAKNTVYLQMNSLKPEDTAVYYCPATRYSAYSRGKYNFWGQGTQVTVSS | high polyreactivity
QVQLVESGGGLVQAGGSLRLSCAASGSTFGTNVMGWYRQAPGKERELVAAISRRGSSTYYADSVKGRFTISRDNAKNTVYLQMNSLKPEDTAVYYCAARVYPSAAMDSWGQGTQVTVSS | high polyreactivity
QVQLVESGGGLVQAGGSLRLSCAASGSTFGTYAMGWYRQAPGKERELVAAITSGDNTYYADSVKGRFTISRDNAKNTVYLPMNSLKPEDTAVYYCAKDYNRYYWPWVIRGYDYWGQGTHVTVSS | low polyreactivity
QVQLVESGGGLVQAGGSLRLSCAASGSTFGTYAMGWYRQEPGKERELVAAINRDGGRTYYADSVKGRFTISRDNAKNTVYLQMNSLKPEDTAVYYCAAEGLDEGDYWGQGTQVTVSS | low polyreactivity
QVQLVESGGGLVQAGGSLRLSCAASGSTFGVNALGWYRQAPGKERELVAVITRSGGSTYYADSVKGRFTISRDNAKNTVYLQMNSLKPEDTAVYYCAKSGVVDWGQGTQVTVSS | low polyreactivity
QVQLVESGGGLVQAGGSLRLSCAASGSTFGVNAMGWYRQAPGKERELVADMSFRTDSTYYADSVKGRFTISRDNAKNTVYLQMNRLNPEDTAVYYCAAEVPYYYPGFYSYYDDSDYWGQGTQVTVSS | low polyreactivity

Sequence | polyreactivity (PSR sort gate)
QVQLVESGGGLVQAGGSLRLSCAASGSTFGVNAMGWYRQAPGKERELVAIITSTTYADSVKGRFTISRDNAKNTVYLQMNSLKPEDTAVYYCAKDQERVTKGRFYLLEYYWGQGTQVTVSS | low polyreactivity
QVQLVESGGGLVQAGGSLRLSCAASGSTFGVNAMGWYRQAPGKERELVAVITRSGGSTYYADSVKGRFTISRDNAKNTVYLQMNSLKPEDTAVYYCATSGVVDWGQGTQVTVSS | low polyreactivity
QVQLVESGGGLVQAGGSLRLSCAASGSTFGVYAMGWYREAPGKERELVAAINKSGTRTYYADSVKGRFTISRDNAKNTVYLQMNSLKPEDTAVYYCAADQGTYGYGGFYYWGQGTQVTVSS | high polyreactivity
QVQLVESGGGLVQAGGSLRLSCAASGSTFGVYAMGWYRQAPGKEREFVAAITSSSGSTYYADSVKGRFTISRDNAKNTVYLQMNSLKPEDTAVYYCNVQGWTRSDAGRYDNMDYWGQGTQVTVSS | low polyreactivity
QVQLVESGGGLVQAGGSLRLSCAASGSTFGVYDMGWYRQAPGKERELVAAITGNGGRTYYADSVKGRFTISRDNAKNTVYLQMNSLKPEDTAVYYCNARVKRYVYWPYDYWGQGTQVTVSS | high polyreactivity
QVQLVESGGGLVQAGGSLRLSCAASGSTFGWYAMGGYRQAPGKERELVAAISSGGSTYYADSVKGRFTISRDHAKYTVYLQMNSLKPEDTAVYYCAADIGYYYRYDYWGQGTQVTVSS | low polyreactivity
QVQLVESGGGLVQAGGSLRLSCAASGSTFGWYAMGLYRQAPGKERELVATISSGGSTYYADSVKGRFTISRDNAKNTVYLQMNSLKPEDTAVYYCAADYWTYEYPGYDYWGQGTQVTVSS | low polyreactivity
QVQLVESGGGLVQAGGSLRLSCAASGSTFGWYAMGWYRQAPGKERELVAAISTSGNTYYADSVKGRFTISRDNAKNTVYLHMNRLKPEDTAVSYCAKYVNPDHDYWGQGTQVTVSS | low polyreactivity
QVQLVESGGGLVQAGGSLRLSCAASGSTFGWYTMGWYRQAPGKERELVAAITSRGTRTSYADSVKGRFTISRDNAKNTVYLQMNSLKPEDTAVYYCAARVFRGLGEYYWGQGTQVTVSS | high polyreactivity
QVQLVESGGGLVQAGGSLRLSCAASGSTFGYNAMGWYRQAPGKEREFVASIDARGTSTYYADSVKGRFTISRDNAKNTVYLQMNSLKPEYTAVYYCAADAEFTWSTVRLGWIYIWYEYWGQGTQVTVSS | low polyreactivity
QVQLVESGGGLVQAGGSLRLSCAASGSTFGYNAMGWYRQAPGKEREFVATIRYSGDRTYYADSVKGRFTISRDNAKNTVYLQMNSLKPEDTAVYYCAADLYYNSYGRYGRYYYWGQGTQVTVSS | high polyreactivity
QVQLVESGGGLVQAGGSLRLSCAASGSTFGYNAMGWYRQAPGKERELVAAISSDGSTNYADSVKGRFTISRDNSKNTVYLQMNSLKPEDTAVYYCAADDNGAWVRMDYWGHGTQVTVSS | low polyreactivity
QVQLVESGGGLVQAGGSLRLSCAASGSTFGYNAMGWYRQAPGKERELVAAISWRGGNTYYADSVKGRFTISRDNAKNTVYLQMNSLKPEDTAVYYCNKVWPRYYVHGGSRVPEYDYWGQGTQVTVSS | high polyreactivity
QVQLVESGGGLVQAGGSLRLSCAASGSTFGYNAMGWYRQAPGKERELVAAISYIGGSTYYADSVKGRFTISRDNAKNTVYLQMNSLKPEDTAVYYCNAAVRYYDRTVSPVKFDYWGQGTQVTVSS | high polyreactivity
QVQLVESGGGLVQAGGSLRLSCAASGSTFGYNDMGWYRQAPGKERELVAAISVSDSSTYYADSVKGRFTISRDNAKNTVYLQMNSLKPEDTAVYYCAAYIYYNYSRQYWYDYWGQGTQVTVSS | low polyreactivity
